Among the data in the Immune Epitope Database (IEDB) are IC50 values, retold here.

pIC50: −log10 of the molar value.

For experiment [1], the target named is HLA-A*02:03. Description: IEDB peptide-MHC binding, purified MHC/competitive/radioactivity; ≥ and ≤ were set here for values at or beyond the usual limits of such assays.
In experiment [2] the target is HLA-A*02:06. The experiment is described as above.
Experiment [3] deals with HLA-A*02:02. The experiment in a line: IEDB peptide-MHC binding, cellular MHC/competitive/fluorescence; ≥ and ≤ were set here for values at or beyond the usual limits of such assays.
The target of experiment [4] is HLA-A*68:02. The description is as above.
Experiment [5] concerns the target HLA-A*02:01. The experiment is described as above.
Experiment [6] addresses HLA-A*02:01. The experiment in a line: IEDB peptide-MHC binding, purified MHC/competitive/radioactivity; ≥ and ≤ were set here for values at or beyond the usual limits of such assays. As to conditions: source organism: Vaccinia virus WR.
The target of experiment [7] is HLA-A*68:02. The description is as above. As to conditions: source organism: Vaccinia virus WR.
[8] abbreviates: source organism: Influenza A virus.
The mark [9] stands for this setting: source organism: Vaccinia virus WR.

Take AAMDDFQLI: the pIC50 in experiment [1] (setting [8]) was 5.76; in experiment [2] (setting [8]), 7.00; in experiment [3] (setting [8]), 5.02; in experiment [4] (setting [8]), 4.24; in experiment [5] (setting [8]), 5.10.
In the case of CALVSDCAST, the pIC50 in experiment [1] (setting [9]) is 6.84; in experiment [6], 6.83; in experiment [2] (setting [9]), 5.59; in experiment [3] (setting [9]) it was 5.19; in experiment [4] (setting [9]) it was 4.28.
DLKHATDYIA: the pIC50 is 5.53 in experiment [1] (setting [9]); 5.98 in experiment [2] (setting [9]); 5.06 in experiment [3] (setting [9]); 5.03 in experiment [4] (setting [9]); 4.79 in experiment [5] (setting [9]).
For DLLLPSTDV, the negative-log IC50 (pIC50) in experiment [1] (setting [9]) was 5.41; in experiment [6], 5.83; in experiment [2] (setting [9]), 5.98; in experiment [3] (setting [9]) it was 4.82; in experiment [4] (setting [9]) it was 4.88.
As to FAFIDFSKST, the pIC50 in experiment [1] (setting [9]) was 5.62; in experiment [2] (setting [9]), 5.85; in experiment [3] (setting [9]) it was 4.93; in experiment [4] (setting [9]), 5.30; in experiment [5] (setting [9]), 5.11.
Turning to FIISTLNKIL, the pIC50 in experiment [1] (setting [9]) was 8.74; in experiment [6], 6.77; in experiment [2] (setting [9]) it was 8.09; in experiment [3] (setting [9]), 5.29; in experiment [4] (setting [9]), 4.93.
In the case of GAAITLVVI, the pIC50 is 5.48 in experiment [1] (setting [9]); 5.97 in experiment [6]; 5.53 in experiment [2] (setting [9]); 5.19 in experiment [3] (setting [9]); 5.14 in experiment [4] (setting [9]).
For the sequence GALYLGHSA, the pIC50 is 5.72 in experiment [1] (setting [9]); 6.10 in experiment [2] (setting [9]); 5.12 in experiment [3] (setting [9]); 4.89 in experiment [4] (setting [9]); 4.65 in experiment [5] (setting [9]).
As to GVLIAGIIL, the pIC50 is 5.98 in experiment [1] (setting [9]); 6.26 in experiment [6]; 6.02 in experiment [2] (setting [9]); 5.28 in experiment [3] (setting [9]); 4.77 in experiment [4] (setting [9]).
ITLVVISVI: the pIC50 in experiment [1] (setting [9]) was 5.74; in experiment [6], 6.26; in experiment [2] (setting [9]), 5.99; in experiment [3] (setting [9]), 4.82; in experiment [4] (setting [9]), 5.22.
Consider ITPNNLNKI, for which the pIC50 in experiment [1] (setting [9]) was 6.06; in experiment [2] (setting [9]) it was 6.39; in experiment [3] (setting [9]) it was 4.84; in experiment [4] (setting [9]) it was 4.87; in experiment [5] (setting [9]), 4.47.
Regarding IVQSVLRDI, the pIC50 was 7.00 in experiment [1] (setting [9]); 5.88 in experiment [2] (setting [9]); at most 4.15 in experiment [3] (setting [9]); 4.32 in experiment [4] (setting [9]); 4.33 in experiment [5] (setting [9]).
The matching figures for KINNNRIVAM: 5.89, 5.50, 5.04, 4.64 and 4.63.
Consider KTPLYYLSGT, for which the pIC50 was 5.51 in experiment [1] (setting [9]); 5.85 in experiment [2] (setting [9]); 4.66 in experiment [3] (setting [9]); 4.46 in experiment [4] (setting [9]); 4.35 in experiment [5] (setting [9]).
In the case of KTRLFRSPQV, the pIC50 was 6.01 in experiment [1] (setting [9]); 6.36 in experiment [2] (setting [9]); 5.03 in experiment [3] (setting [9]); 5.21 in experiment [4] (setting [9]); 5.15 in experiment [5] (setting [9]).
The matching figures for LTQVKELGIA: 6.82, 7.74, 4.93, 4.87 and 4.41.
The matching figures for LVQYRILPM: 5.93, 5.33, 4.83, 4.23 and 4.46.
As for LVQYRILPMI, the pIC50 in experiment [1] (setting [9]) is 5.92; in experiment [6], 5.60; in experiment [2] (setting [9]), 6.15; in experiment [3] (setting [9]) it was 4.90; in experiment [4] (setting [9]), 4.90.
For the sequence NIKPVIVPDI, the pIC50 in experiment [1] (setting [9]) was 6.13; in experiment [2] (setting [9]), 6.02; in experiment [3] (setting [9]), 4.99; in experiment [4] (setting [9]), 5.02; in experiment [5] (setting [9]) it was at most 4.15.
Regarding NINIEVKLFI, the negative logarithm of the IC50 (pIC50) in experiment [1] (setting [9]) is 5.69; in experiment [6] it was 5.93; in experiment [2] (setting [9]), 5.64; in experiment [3] (setting [9]), 4.90; in experiment [4] (setting [9]), 5.13.
For the sequence QQLCTMERT, the pIC50 in experiment [1] (setting [9]) was 5.34; in experiment [2] (setting [9]) it was 6.03; in experiment [3] (setting [9]), at most 4.15; in experiment [4] (setting [9]), at most 4.15; in experiment [5] (setting [9]) it was 4.33.
QVKELGIAI: the pIC50 in experiment [1] (setting [9]) was 6.05; in experiment [2] (setting [9]), 5.43; in experiment [3] (setting [9]), 5.04; in experiment [4] (setting [9]), 5.12; in experiment [5] (setting [9]), 4.97.
With SIGFEARIV, the pIC50 in experiment [1] (setting [9]) was 6.24; in experiment [2] (setting [9]) it was 5.88; in experiment [3] (setting [9]) it was 4.99; in experiment [4] (setting [9]), 4.72; in experiment [5] (setting [9]), 5.14.
Take SLCPIRGWAI: the pIC50 in experiment [3] (setting [8]) is 5.26; in experiment [4] (setting [8]) it was 4.79.
As for STFNMWREI, the pIC50 in experiment [1] (setting [9]) is 6.15; in experiment [7] it was 7.70; in experiment [2] (setting [9]), 7.02; in experiment [3] (setting [9]) it was 5.24; in experiment [5] (setting [9]) it was 5.25.
Take STIANSNII: the pIC50 was 5.83 in experiment [1] (setting [9]); 7.46 in experiment [7]; 5.91 in experiment [2] (setting [9]); 5.21 in experiment [3] (setting [9]); 4.90 in experiment [5] (setting [9]).
Take STVDVRNIV: the pIC50 in experiment [1] (setting [9]) was 5.46; in experiment [7], 7.74; in experiment [2] (setting [9]), 5.79; in experiment [3] (setting [9]), 5.20; in experiment [5] (setting [9]), 5.09.
TQVKELGIA: the pIC50 in experiment [1] (setting [9]) was 7.28; in experiment [2] (setting [9]), 7.25; in experiment [3] (setting [9]), 5.14; in experiment [4] (setting [9]), 4.63; in experiment [5] (setting [9]), 4.91.
Taken in the same sequence, the figures for VAMLLTHGA were 6.20, 6.14, 5.14, 5.02 and 5.05.
As to VIDRLPSET, the pIC50 in experiment [1] (setting [9]) is 6.13; in experiment [6], 5.46; in experiment [2] (setting [9]), 5.44; in experiment [3] (setting [9]), 5.15; in experiment [4] (setting [9]) it was 5.07.
For VILKDPRIA, the pIC50 in experiment [1] (setting [9]) was 6.22; in experiment [6] it was 6.16; in experiment [2] (setting [9]), 6.50; in experiment [3] (setting [9]), 4.97; in experiment [4] (setting [9]), 4.42.
The matching figures for VLEKKVCAI: 5.64, 5.86, 5.47, 4.84 and 4.34.
On to VQLPKRGVRV, for which the pIC50 in experiment [1] (setting [9]) was 5.66; in experiment [6], 5.78; in experiment [2] (setting [9]), 7.39; in experiment [3] (setting [9]), 4.47; in experiment [4] (setting [9]), 4.25.
Turning to VQLSNNKYV, the pIC50 is 6.27 in experiment [1] (setting [9]); 5.74 in experiment [6]; 6.67 in experiment [2] (setting [9]); 5.13 in experiment [3] (setting [9]); at most 4.15 in experiment [4] (setting [9]).
Taken in the same sequence, the figures for VTLNRIKIA were 6.39, 5.96, 6.20, 4.88 and 4.58.
For YASLTTIGTI, the pIC50 in experiment [1] (setting [9]) is 6.40; in experiment [7], 6.88; in experiment [2] (setting [9]), 7.08; in experiment [3] (setting [9]), 5.20; in experiment [5] (setting [9]), 5.07.
YIWIKNLET: the pIC50 in experiment [1] (setting [9]) is 5.93; in experiment [2] (setting [9]), 6.46; in experiment [3] (setting [9]) it was 4.90; in experiment [4] (setting [9]) it was 4.49.
